Results reported in patent publication US20170285043A1 (WHITEHEAD INSTITUTE FOR BIOMEDICAL RESEARCH, published 2017).
One block for each binder: values may come before it.

B2: metap2 control protein (enzyme, UniProt P50579 1-478, looked up, not shown: small tags and cut ends)
chain: MAGVEEVAASGSHLNGDLDPDDREEGAASTAEEAAKKKRRKKKKSKGPSAAGEQEPDKESGASVDEVARQLERSALEDKERDEDDEDGDGDGDGATGKKKKKKKKKRGPKVQTDPPSVPICDLYPNGVFPKGQECEYPPTQDGRTAAWRTTSEEKKALDQASEEIWNDFREAAEAHRQVRKYVMSWIKPGMTMIEICEKLEDCSRKLIKENGLNAGLAFPTGCSLNNCAAHYTPNAGDTTVLQYDDICKIDFGTHISGRIIDCAFTVTFNPKYDTLLKAVKDATNTGIKCAGIDVRLCDVGEAIQEVMESYEVEIDGKTYQVKPIRNLNGHSIGQYRIHAGKTVPIVKGGEATRMEEGEVYAIETFGSTGKGVVHDDMECSHYMKNFDVGHVPIRLPRTKHLLNVINENFGTLAFCRRWLDRLGESKYLMALKNLCDLGIVDPYPPLCDIKGSYTAQFEHTILLRPTCKEVVSRGDDY
notes: Control protein; also called FLAG-Metap2; FLAG-metap2
B3: FLAG-Sestrin3 (other)
chain: MNRGGGSPSAAANYLLCTNCRKVLRKDKRIRVSQPLTRGPSAFIPEKEVVQANTVDERTNFLVEEYSTSGRLDNITQVMSLHTQYLESFLRSQFYMLRMDGPLPLPYRHYIAIMAAARHQCSYLINMHVDEFLKTGGIAEWLNGLEYVPQRLKNLNEINKLLAHRPWLITKEHIQKLVKTGENNWSLPELVHAVVLLAHYHALASFVFGSGINPERDPEISNGFRLISVNNFCVCDLANDNNIENASLSGSNFGIVDSLSELEALMERMKRLQEEREDEEASQEEMSTRFEKEKKESLFVVSGDTFHSFPHSDFEDDMIITSDVSRYIEDPGFGYEDFARRGEEHLPTFRAQDYTWENHGFSLVNRLYSDIGHLLDEKFRMVYNLTYNTMATHEDVDTTMLRRALFNYVHCMFGIRYDDYDYGEVNQLLERSLKVYIKTVTCYPERTTKRMYDSYWRQFKHSEKVHVNLLLMEARMQAELLYALRAITRHLT
notes: also called recombinant, FLAG-tagged Sestrin3; not shown: FLAG tag
B4: FLAG-Sestrin2 (other)
chain: MIVADSECRAELKDYLRFAPGGVGDSGPGEEQRESRARRGPRGPSAFIPVEEVLREGAESLEQHLGLEALMSSGRVDNLAVVMGLHPDYFTSFWRLHYLLLHTDGPLASSWRHYIAIMAAARHQCSYLVGSHMAEFLQTGGDPEWLLGLHRAPEKLRKLSEINKLLAHRPWLITKEHIQALLKTGEHTWSLAELIQALVLLTHCHSLSSFVFGCGILPEGDADGSPAPQAPTPPSEQSSPPSRDPLNNSGGFESARDVEALMERMQQLQESLLRDEGTSQEEMESRFELEKSESLLVTPSADILEPSPHPDMLCFVEDPTFGYEDFTRRGAQAPPTFRAQDYTWEDHGYSLIQRLYPEGGQLLDEKFQAAYSLTYNTIAMHSGVDTSVLRRAIWNYIHCVFGIRYDDYDYGEVNQLLERNLKVYIKTVACYPEKTTRRMYNLFWRHFRHSEKVHVNLLLLEARMQAALLYALRAITRYMT
notes: Transiently or stably expressed in HEK-293T cells; also called FLAG-tagged wild-type Sestrin2; wild-type Sestrin2; not shown: FLAG tag

Experiments:
[1] = target: B2; assay: anti-FLAG co-immunoprecipitation, transient co-expression in HEK-293T, immunoblot (FIG. 1B)
Method: (§1) Two million HEK-293T cells were plated in 10 cm culture dishes and grown. Twenty-four hours later, cells were transfected via the polyethylenimine method (Boussif et al., 1995) with one or more of the pRK5-based cDNA expression plasmids in the following amounts: 300 ng FLAG-Metap2, 100 ng FLAG-WDR24, 50 ng FLAG-Sestrin1, 25 ng FLAG-Sestrin2, 200 ng FLAG-Sestrin3, 2 ng of FLAG-S6K1, or 200 ng each of HA-Mios, HA-WDR59, HA-WDR24, HA-Sec13, HA-Seh1L, HA-Depdc5, HA-Npr13, or HA-Npr12. The total amount of plasmid DNA in each transfection was normalized to 5 μg with empty pRK5.
(§2) The beads were washed 3 times with lysis buffer containing 500 mM NaCl. In the case of transient cotransfection assays to explore the interaction of the Sestrins with GATOR2, beads were incubated in the final salt wash for 30 minutes to reduce non-specific binding.

[2] = target: T1, GATOR1, recombinant (HA-Depdc5, HA-Npr13, HA-Npr12) (UniProt O75140 1-1603; Q8WTW4 1-380; Q12980 1-569, limits assumed); assay: as above
T1 construct: also called GATOR1 multi-protein complex; not shown: HA tag
Method: as §1, §2

[3] = target: B3; assay: as above
Method: as §1, §2

[4] = target: B4; assay: as above
Method: as §1, §2

[5] = target: T2, FLAG-DEPDCS, a GATOR1 component (UniProt O75140 1-1603, limits assumed); assay: anti-FLAG co-immunoprecipitation from stably expressing HEK-293T, immunoblot (FIG. 5A)
T2 construct: also called FLAG-DEPDC5; not shown: FLAG tag
T2 sequence (O75140 whole entry): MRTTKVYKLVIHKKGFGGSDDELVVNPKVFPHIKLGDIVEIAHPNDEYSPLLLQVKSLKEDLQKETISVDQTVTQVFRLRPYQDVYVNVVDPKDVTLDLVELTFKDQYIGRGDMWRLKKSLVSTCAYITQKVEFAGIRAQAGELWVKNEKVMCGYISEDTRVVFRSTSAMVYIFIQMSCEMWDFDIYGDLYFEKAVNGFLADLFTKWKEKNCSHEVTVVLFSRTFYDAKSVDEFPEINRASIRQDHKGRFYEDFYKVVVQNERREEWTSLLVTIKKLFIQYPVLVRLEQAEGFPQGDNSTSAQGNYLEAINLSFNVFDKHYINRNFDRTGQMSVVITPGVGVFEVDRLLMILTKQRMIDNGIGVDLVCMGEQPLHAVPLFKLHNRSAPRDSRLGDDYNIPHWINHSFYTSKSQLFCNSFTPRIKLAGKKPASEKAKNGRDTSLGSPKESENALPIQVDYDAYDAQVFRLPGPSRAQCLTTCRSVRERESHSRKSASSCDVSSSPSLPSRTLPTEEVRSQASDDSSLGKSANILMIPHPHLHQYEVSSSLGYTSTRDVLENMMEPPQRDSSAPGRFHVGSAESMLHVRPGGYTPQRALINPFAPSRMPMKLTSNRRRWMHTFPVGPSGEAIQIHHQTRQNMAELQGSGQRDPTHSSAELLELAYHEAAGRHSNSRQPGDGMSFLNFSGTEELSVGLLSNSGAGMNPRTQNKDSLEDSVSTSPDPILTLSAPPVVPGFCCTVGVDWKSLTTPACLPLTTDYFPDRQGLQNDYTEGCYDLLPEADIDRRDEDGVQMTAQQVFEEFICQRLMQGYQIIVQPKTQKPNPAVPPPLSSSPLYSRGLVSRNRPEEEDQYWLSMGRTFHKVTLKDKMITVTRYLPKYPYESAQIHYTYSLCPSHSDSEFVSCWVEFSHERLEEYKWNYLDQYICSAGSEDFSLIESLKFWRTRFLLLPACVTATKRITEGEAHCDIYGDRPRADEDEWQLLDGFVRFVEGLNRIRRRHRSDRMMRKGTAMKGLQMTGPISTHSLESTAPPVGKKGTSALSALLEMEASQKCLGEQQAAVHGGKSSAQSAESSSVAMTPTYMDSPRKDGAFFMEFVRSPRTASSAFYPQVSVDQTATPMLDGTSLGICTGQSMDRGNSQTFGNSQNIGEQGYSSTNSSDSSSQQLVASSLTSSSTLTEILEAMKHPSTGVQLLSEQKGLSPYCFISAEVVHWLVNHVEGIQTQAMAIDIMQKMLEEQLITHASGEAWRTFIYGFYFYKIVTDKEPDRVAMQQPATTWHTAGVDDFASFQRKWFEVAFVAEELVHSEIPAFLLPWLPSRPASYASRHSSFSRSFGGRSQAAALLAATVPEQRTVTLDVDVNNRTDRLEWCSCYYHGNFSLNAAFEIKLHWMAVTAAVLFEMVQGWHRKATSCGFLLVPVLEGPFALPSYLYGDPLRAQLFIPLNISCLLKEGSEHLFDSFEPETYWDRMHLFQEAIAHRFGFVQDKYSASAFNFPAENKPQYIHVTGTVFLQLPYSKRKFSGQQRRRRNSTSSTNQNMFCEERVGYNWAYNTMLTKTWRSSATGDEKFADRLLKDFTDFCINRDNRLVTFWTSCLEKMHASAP

T1 sequence (O75140 whole entry, chain 1 of 3): as the sequence (O75140 whole entry) above
T1 sequence (Q8WTW4 whole entry, chain 2 of 3): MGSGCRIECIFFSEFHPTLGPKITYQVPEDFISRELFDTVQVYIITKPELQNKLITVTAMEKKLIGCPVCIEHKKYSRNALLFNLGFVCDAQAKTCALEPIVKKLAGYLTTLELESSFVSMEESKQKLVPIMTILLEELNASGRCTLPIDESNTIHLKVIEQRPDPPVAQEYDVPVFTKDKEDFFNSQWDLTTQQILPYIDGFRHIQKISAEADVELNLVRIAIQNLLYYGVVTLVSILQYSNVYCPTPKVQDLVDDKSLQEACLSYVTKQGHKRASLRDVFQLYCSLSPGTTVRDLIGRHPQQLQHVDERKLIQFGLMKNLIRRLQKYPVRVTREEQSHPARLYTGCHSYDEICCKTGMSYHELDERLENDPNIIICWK
T1 sequence (Q12980 whole entry, chain 3 of 3): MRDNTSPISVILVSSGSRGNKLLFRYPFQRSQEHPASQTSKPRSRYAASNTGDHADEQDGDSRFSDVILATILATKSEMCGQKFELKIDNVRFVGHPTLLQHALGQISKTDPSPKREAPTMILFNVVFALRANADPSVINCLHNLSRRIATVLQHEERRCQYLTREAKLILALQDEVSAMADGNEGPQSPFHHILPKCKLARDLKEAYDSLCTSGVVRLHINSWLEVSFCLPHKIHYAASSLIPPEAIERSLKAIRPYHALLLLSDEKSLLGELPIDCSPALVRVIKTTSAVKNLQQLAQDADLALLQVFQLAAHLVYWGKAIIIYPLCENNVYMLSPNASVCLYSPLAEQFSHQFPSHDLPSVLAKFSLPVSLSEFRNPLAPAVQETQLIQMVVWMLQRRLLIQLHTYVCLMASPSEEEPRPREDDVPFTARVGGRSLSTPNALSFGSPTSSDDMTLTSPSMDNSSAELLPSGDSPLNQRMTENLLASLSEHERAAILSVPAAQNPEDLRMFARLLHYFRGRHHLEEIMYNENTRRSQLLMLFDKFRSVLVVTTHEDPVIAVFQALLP

binding result [1]: no binding
binding result [2]: no binding
B1: FLAG-Sestrin1 (other)
chain: MAEGENEVRWDGLCSRDSTTRETALENIRQTILRKTEYLRSVKETPHRPSDGLSNTESSDGLNKLLAHLLMLSKRCPFKDVREKSEFILKSIQELGIRIPRPLGQGPSRFIPEKEILQVGSEDAQMHALFADSFAALGRLDNITLVMVFHPQYLESFLKTQHYLLQMDGPLPLHYRHYIGIMAAARHQCSYLVNLHVNDFLHVGGDPKWLNGLENAPQKLQNLGELNKVLAHRPWLITKEHIEGLLKAEEHSWSLAELVHAVVLLTHYHSLASFTFGCGISPEIHCDGGHTFRPPSVSNYCICDITNGNHSVDEMPVNSAENVSVSDSFFEVEALMEKMRQLQECRDEEEASQEEMASRFEIEKRESMFVFSSDDEEVTPARAVSRHFEDTSYGYKDFSRHGMHVPTFRVQDYCWEDHGYSLVNRLYPDVGQLIDEKFHIAYNLTYNTMAMHKDVDTSMLRRAIWNYIHCMFGIRYDDYDYGEINQLLDRSFKVYIKTVVCTPEKVTKRMYDSFWRQFKHSEKVHVNLLLIEARMQAELLYALRAITRYMT
notes: also called recombinant, FLAG-tagged Sestrin1; not shown: FLAG tag

Binder: B2
binding result [3]: no binding
binding result [4]: no binding

Binder: B3
binding result [2]: no binding

Binder: B4
binding result [2]: no binding

binding result [5]: no binding
B5: endogenous Sestrin2 (other)
chain: MIVADSECRAELKDYLRFAPGGVGDSGPGEEQRESRARRGPRGPSAFIPVEEVLREGAESLEQHLGLEALMSSGRVDNLAVVMGLHPDYFTSFWRLHYLLLHTDGPLASSWRHYIAIMAAARHQCSYLVGSHMAEFLQTGGDPEWLLGLHRAPEKLRKLSEINKLLAHRPWLITKEHIQALLKTGEHTWSLAELIQALVLLTHCHSLSSFVFGCGILPEGDADGSPAPQAPTPPSEQSSPPSRDPLNNSGGFESARDVEALMERMQQLQESLLRDEGTSQEEMESRFELEKSESLLVTPSADILEPSPHPDMLCFVEDPTFGYEDFTRRGAQAPPTFRAQDYTWEDHGYSLIQRLYPEGGQLLDEKFQAAYSLTYNTIAMHSGVDTSVLRRAIWNYIHCVFGIRYDDYDYGEVNQLLERNLKVYIKTVACYPEKTTRRMYNLFWRHFRHSEKVHVNLLLLEARMQAALLYALRAITRYMT
notes: Endogenous protein of human HEK-293T cells
